test system: Escherichia coli TOP10; test: shrunken log2 fold change of peptide-encoding DNA abundance (4.5 h post-induction vs induction); higher = less antimicrobial activity (less host growth inhibition); details: time post-induction: 4.5 h; library: site-saturation at positions 5, 18, 19, 20
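Note: peptides expressed intracellularly from a pBAD plasmid library in pooled LB shake-flask culture, induced with 0.3% L-arabinose, DNA abundance read by NGS, three biological replicates, DESeq2 with apeglm shrinkage.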

| Sequence | shrunken log2 fold change |
| --- | --- |
| RRIRNRPPRLPRPRPRPMCPPRP | -0.0135 |
| RRIRMRPPRLPRPRPRPHRVPRP | -0.0492 |
| RRIRVRPPRLPRPRPRPIHFPRP | -0.0962 |
| RRIRNRPPRLPRPRPRPSANPRP | -0.379 |
| RRIRTRPPRLPRPRPRPYCIPRP | -0.205 |
| RRIRNRPPRLPRPRPRPRNDPRP | -0.304 |
| RRIRWRPPRLPRPRPRPIPQPRP | 0.254 |
| RRIRTRPPRLPRPRPRPSCHPRP | -0.783 |
| RRIRWRPPRLPRPRPRPNDWPRP | 0.00443 |
| RRIRCRPPRLPRPRPRPYPHPRP | -0.438 |
| RRIRKRPPRLPRPRPRPNMTPRP | 0.0525 |
| RRIRMRPPRLPRPRPRPDVRPRP | 0.111 |
| RRIRWRPPRLPRPRPRPRLAPRP | 0.84 |
| RRIRVRPPRLPRPRPRPRIWPRP | 0.468 |
| RRIRPRPPRLPRPRPRPRVRPRP | 0.217 |
| RRIRRRPPRLPRPRPRPTFVPRP | 0.998 |
| RRIRCRPPRLPRPRPRPWWCPRP | -0.248 |
| RRIRERPPRLPRPRPRPEFRPRP | -0.274 |
| RRIRIRPPRLPRPRPRPNQNPRP | -0.391 |
| RRIRPRPPRLPRPRPRPLLSPRP | 0.0345 |
| RRIRVRPPRLPRPRPRPYQNPRP | -0.141 |
| RRIRGRPPRLPRPRPRPQHRPRP | 0.212 |
| RRIRYRPPRLPRPRPRPHEAPRP | -0.215 |
| RRIRMRPPRLPRPRPRPFDRPRP | 0.00911 |
| RRIRPRPPRLPRPRPRPSLKPRP | -0.25 |

| Sequence | shrunken log2 fold change |
| --- | --- |
| RRIRPRPPRLPRPRPRPLMNPRP | -0.47 |
| RRIRCRPPRLPRPRPRPFVCPRP | -0.242 |
| RRIRRRPPRLPRPRPRPYVCPRP | -0.374 |
| RRIRLRPPRLPRPRPRPMMRPRP | 0.196 |
| RRIRRRPPRLPRPRPRPSQLPRP | 0.448 |
| RRIRSRPPRLPRPRPRPRKIPRP | 0.12 |
| RRIRIRPPRLPRPRPRPWYKPRP | -0.689 |
| RRIRERPPRLPRPRPRPDTEPRP | -0.0215 |
| RRIRHRPPRLPRPRPRPMSLPRP | -0.00613 |
| RRIRWRPPRLPRPRPRPTVGPRP | 0.468 |
| RRIRRRPPRLPRPRPRPYGPPRP | -0.64 |
| RRIRSRPPRLPRPRPRPEWGPRP | 0.0115 |
| RRIRRRPPRLPRPRPRPSTEPRP | 0.664 |
| RRIRMRPPRLPRPRPRPLDRPRP | 0.816 |
| RRIRLRPPRLPRPRPRPYPQPRP | -0.364 |
| RRIRDRPPRLPRPRPRPIFNPRP | -0.239 |
| RRIRTRPPRLPRPRPRPDYCPRP | -0.125 |
| RRIRKRPPRLPRPRPRPTLEPRP | 0.132 |
| RRIRNRPPRLPRPRPRPYSVPRP | -0.0155 |
| RRIRWRPPRLPRPRPRPYLWPRP | -0.153 |
| RRIRIRPPRLPRPRPRPNELPRP | -0.056 |
| RRIRGRPPRLPRPRPRPERGPRP | 1.72 |
| RRIRDRPPRLPRPRPRPNPCPRP | -0.328 |
| RRIRVRPPRLPRPRPRPVQGPRP | 0.0692 |
| RRIRDRPPRLPRPRPRPPFAPRP | 0.427 |

| Sequence | shrunken log2 fold change |
| --- | --- |
| RRIRDRPPRLPRPRPRPLYDPRP | -0.107 |
| RRIRCRPPRLPRPRPRPWDLPRP | 0.129 |
| RRIRVRPPRLPRPRPRPVPYPRP | -0.0265 |
| RRIRMRPPRLPRPRPRPVCQPRP | 0.13 |
| RRIRPRPPRLPRPRPRPQREPRP | -0.063 |
| RRIRNRPPRLPRPRPRPRRCPRP | 0.291 |
| RRIRDRPPRLPRPRPRPCRHPRP | 0.344 |
| RRIRRRPPRLPRPRPRPYEKPRP | 0.0137 |
| RRIRYRPPRLPRPRPRPVRGPRP | 0.393 |
| RRIRVRPPRLPRPRPRPVWHPRP | 0.119 |
| RRIRCRPPRLPRPRPRPDSPPRP | -0.353 |
| RRIRYRPPRLPRPRPRPMSIPRP | -0.563 |
| RRIRNRPPRLPRPRPRPPFQPRP | 0.0529 |
| RRIRGRPPRLPRPRPRPRIVPRP | 0.824 |
| RRIRNRPPRLPRPRPRPIIQPRP | -0.481 |
| RRIRTRPPRLPRPRPRPLEVPRP | -0.00296 |
| RRIRARPPRLPRPRPRPIRFPRP | 0.247 |
| RRIRSRPPRLPRPRPRPIVMPRP | 0.0137 |
| RRIRMRPPRLPRPRPRPWHLPRP | -0.00137 |
| RRIRPRPPRLPRPRPRPQQLPRP | 0.0282 |
| RRIRWRPPRLPRPRPRPPIDPRP | 0.1 |
| RRIRRRPPRLPRPRPRPTNKPRP | 0.149 |
| RRIRTRPPRLPRPRPRPNNKPRP | -0.474 |
| RRIRPRPPRLPRPRPRPEFHPRP | -0.0272 |
| RRIRDRPPRLPRPRPRPMTDPRP | -0.109 |

| Sequence | shrunken log2 fold change |
| --- | --- |
| RRIRFRPPRLPRPRPRPVTMPRP | -0.295 |
| RRIRQRPPRLPRPRPRPTRMPRP | 0.185 |
| RRIRNRPPRLPRPRPRPCKWPRP | -0.339 |
| RRIRKRPPRLPRPRPRPQIGPRP | -0.0295 |
| RRIRRRPPRLPRPRPRPWPAPRP | 0.448 |
| RRIRPRPPRLPRPRPRPPCAPRP | 0.925 |
| RRIRTRPPRLPRPRPRPFNTPRP | -0.0686 |
| RRIRIRPPRLPRPRPRPKKWPRP | -0.00764 |
| RRIRTRPPRLPRPRPRPCTHPRP | -0.0873 |
| RRIRYRPPRLPRPRPRPSSFPRP | -0.0941 |
| RRIRLRPPRLPRPRPRPWYHPRP | 0.112 |
| RRIRERPPRLPRPRPRPVRYPRP | -0.582 |
| RRIRPRPPRLPRPRPRPIVCPRP | -0.228 |
| RRIRLRPPRLPRPRPRPKWHPRP | -0.207 |
| RRIRGRPPRLPRPRPRPAATPRP | 3.06 |
| RRIRVRPPRLPRPRPRPSNTPRP | -0.417 |
| RRIRHRPPRLPRPRPRPKPHPRP | 0.172 |
| RRIRIRPPRLPRPRPRPSHCPRP | -0.505 |
| RRIRIRPPRLPRPRPRPPSVPRP | -0.0681 |
| RRIRVRPPRLPRPRPRPNHMPRP | -0.0124 |
| RRIRSRPPRLPRPRPRPQSGPRP | -0.101 |
| RRIRDRPPRLPRPRPRPTYNPRP | -0.365 |
| RRIRDRPPRLPRPRPRPGSEPRP | 0.0708 |
| RRIRIRPPRLPRPRPRPRHIPRP | -0.19 |
| RRIRPRPPRLPRPRPRPNCLPRP | -0.0395 |

| Sequence | shrunken log2 fold change |
| --- | --- |
| RRIRIRPPRLPRPRPRPDPSPRP | -0.0293 |
| RRIRHRPPRLPRPRPRPHRIPRP | -0.0803 |
| RRIRRRPPRLPRPRPRPELLPRP | 0.147 |
| RRIRFRPPRLPRPRPRPEVHPRP | -0.309 |
| RRIRYRPPRLPRPRPRPTCWPRP | 0.0987 |
| RRIRTRPPRLPRPRPRPRSNPRP | 0.186 |
| RRIRVRPPRLPRPRPRPERCPRP | 0.187 |
| RRIRHRPPRLPRPRPRPIRDPRP | 0.0386 |
| RRIRNRPPRLPRPRPRPCAFPRP | -0.071 |
| RRIRIRPPRLPRPRPRPWNLPRP | 0.0133 |
| RRIRMRPPRLPRPRPRPIGNPRP | 0.13 |
| RRIRPRPPRLPRPRPRPLWKPRP | 0.0546 |
| RRIRVRPPRLPRPRPRPNRHPRP | -0.195 |
| RRIRFRPPRLPRPRPRPCWFPRP | -0.509 |
| RRIRSRPPRLPRPRPRPYPAPRP | -0.559 |
| RRIRDRPPRLPRPRPRPPIMPRP | 0.0621 |
| RRIRTRPPRLPRPRPRPTRWPRP | 0.301 |
| RRIRHRPPRLPRPRPRPFYAPRP | -0.724 |
| RRIRTRPPRLPRPRPRPPRVPRP | 0.334 |
| RRIRPRPPRLPRPRPRPEYHPRP | -0.0649 |
| RRIRIRPPRLPRPRPRPYWSPRP | 0.0464 |
| RRIRNRPPRLPRPRPRPGSEPRP | -0.24 |
| RRIRVRPPRLPRPRPRPWDNPRP | 0.0145 |
| RRIRERPPRLPRPRPRPNVPPRP | -0.0158 |
| RRIRIRPPRLPRPRPRPYWYPRP | -0.0124 |

| Sequence | shrunken log2 fold change |
| --- | --- |
| RRIRARPPRLPRPRPRPDVNPRP | 0.0462 |
| RRIRWRPPRLPRPRPRPAIYPRP | -0.259 |
| RRIRWRPPRLPRPRPRPRYPPRP | 0.175 |
| RRIRVRPPRLPRPRPRPNVMPRP | -0.173 |
| RRIRGRPPRLPRPRPRPHQTPRP | 0.242 |
| RRIRQRPPRLPRPRPRPTPAPRP | 0.953 |
| RRIRYRPPRLPRPRPRPFQGPRP | 0.0712 |
| RRIRDRPPRLPRPRPRPETLPRP | 0.452 |
| RRIRHRPPRLPRPRPRPKMHPRP | -0.0718 |
| RRIRQRPPRLPRPRPRPGWHPRP | 0.0202 |
| RRIRGRPPRLPRPRPRPYNTPRP | 0.328 |
| RRIRRRPPRLPRPRPRPFERPRP | 0.0145 |
| RRIRMRPPRLPRPRPRPKRCPRP | 0.211 |
| RRIRLRPPRLPRPRPRPRLYPRP | -0.26 |
| RRIRARPPRLPRPRPRPNLLPRP | 0.00335 |
| RRIRYRPPRLPRPRPRPPHSPRP | -0.699 |
| RRIRWRPPRLPRPRPRPRHPPRP | 0.382 |
| RRIRTRPPRLPRPRPRPPDIPRP | -0.118 |
| RRIRDRPPRLPRPRPRPLSAPRP | 0.379 |
| RRIRSRPPRLPRPRPRPEHFPRP | -0.246 |
| RRIRGRPPRLPRPRPRPNLCPRP | -0.0201 |
| RRIRVRPPRLPRPRPRPHPKPRP | 0.0188 |
| RRIRCRPPRLPRPRPRPLLMPRP | -0.195 |
| RRIRWRPPRLPRPRPRPIVSPRP | -0.000687 |
| RRIRKRPPRLPRPRPRPQKCPRP | 0.00165 |
